Laboratory results taken from PMC2599808.

Tests used:
[1] = biological target: recombinant wild-type cardiac troponin T (rat) (UniProt P50753); assay: native gel or EMSA
[2] = biological target: recombinant wild-type cardiac troponin C (chicken) (UniProt P09860); assay: native gel or EMSA

stoichiometry N [1] | stoichiometry N [2] | Substance
1 | 1 | cTnI(160C), cardiac troponin I single-cysteine mutant C81I/C98S/L160C labeled with AEDANS (from UniProt P48787 1-211) (natural protein)
1 | 1 | cTnI(188C), cardiac troponin I single-cysteine mutant C81I/C98S/E188C labeled with AEDANS (from UniProt P48787 1-211) (natural protein)
1 | 1 | cTnI(210C), cardiac troponin I single-cysteine mutant C81I/C98S/E210C labeled with AEDANS (from UniProt P48787 1-211) (natural protein)

The remaining lines, values behind:

Substance | stoichiometry N [1] | stoichiometry N [2]
cTnI(131C), cardiac troponin I single-cysteine mutant C81I/C98S/Q131C labeled with AEDANS (from UniProt P48787 1-211) (natural protein) | 1 | 1
cTnI(151C), cardiac troponin I single-cysteine mutant C81I/C98S/S151C labeled with AEDANS (from UniProt P48787 1-211) (natural protein) | 1 | 1
cTnI(167C), cardiac troponin I single-cysteine mutant C81I/C98S/S167C labeled with AEDANS (from UniProt P48787 1-211) (natural protein) | 1 | 1
